The nanobody polyreactivity screen of Harvey et al. (2022)

Assay: yeast display, Sf9 membrane polyspecificity reagent, FACS + sequencing; frameworks hold sequencing errors
Outline: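 Sorting gates, low and high (top ~1%), were placed on anti-HA fluorescence to track expression and on streptavidin fluorescence to track reagent binding. A clone's polyreactivity label is taken from the gate it came out of. The reagent was 10% biotinylated, detergent-solubilized Sf9 membrane, applied for 1 hour at 4 °C to galactose-induced yeast display cells.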

Row | Sequence | polyreactivity (PSR sort gate)
1 | QVQLVESGGGLVQAGGSLRLSCAASGSTFGGYGMGWYRQAPGQERELVASISGGGNTNYADSVKGRFTISRDNAKNTVYLQKNSLKPEDTAVYYCNARINSWYSTYRYYYWGQGTQVTVSS | low polyreactivity
2 | QVQLVESGGGLVQAGGSLRLSCAASGRTVSNYAMGWSRQAPGKERELVSAISTGGTSTYYADSVKGRFTISRDYAKNTVYLQMNSLKPEDTAVYYCIAVGGWVTHWLLREGDYWGQGTQVTVSS | low polyreactivity
3 | QVQLVESGRGLVQAGGSLRLSCAASGSTFFDYAMGWYRQAPGKERELVATISWNGGSTYYADSVKGRFTISRDTATNTVYLQMNSLKPEDTAVYYCAKDRGYRYLGDYWGQGTQVSVSS | low polyreactivity
4 | QVQLVESGGGLVQAGGSLRLSCAASGSTFTSYTMGWYRQAPGKERELVARITRGGGSTYYADSVKGRFTISRDNAKNTVYLQMNSLKPEDTRSSPVLSYDYWGQGTQVTVSS | low polyreactivity
5 | QVQLVESGGGLVQAGGSLRLSCAASGFIFYHYAMGWYRQAPGKERELVAAISGRGGSTYYADSVKGRFTISRDNAKNTVYLQMNSLKPEDTAVYYCATDYSRTFDYWGQGTQVTVSS | high polyreactivity
6 | QVQLVESGGGLVQARGSLRLSCAASGRIFGNNAKGWYRQAPGKARELVAAIRRGGSTYYADSVKGRFTISRDNAKITVYLQMNSLKPEETAVYYCAADSSRKHFYWGQGTQVTVSS | high polyreactivity
7 | QVQHVESGGGLVQAGGSLRLSCAASGIIFRDYGMGWYRQAPGKEREFVATITYSGGGTYYADSVKGRFTISRDNAKNTVYLQMNSLKPEDTAVYYCAAYPFYYDLAYDYWGQGTQVTVSS | low polyreactivity
8 | QVQLVESGGGLVQAGGSLRLSCAASGRTFNYYTMGWYRQAPGKERELVAAISWSGDSTYYADSVKGRFTISRDNAKNTVYLQMNSLKPEDTAVYYCAAGYASGPRPQTAYYYWGQGTQVTVSS | low polyreactivity
9 | QVQLVESGGGLVQAGGSLRLSCAASGFIFGYNAMGWYRQAPGKERELVAAISTRGGSTYYADSVKGRFTISRDNAKNTVYLQMNSLKPEDTAVYYCNKVTRVPFDSWGQCTQVTVSS | high polyreactivity
10 | QVQLVESGGGLVQAGGSLRLSCAASGRTFWYYTMGWYRQAPGKERELVASITYRGGSTYYADSVKGRFTISRDNAKNTDYLQMNSLKPEDTAVYYCNARYKRYSYDYWGQGTQVTVSS | high polyreactivity
11 | QVQLVESGGGLVQAGGSLRLSCAASGRIFQYYAMGWYRQAPGKERELVAAISSRGGSTTYADSVKGRFTISRDNAKNTVYLQMNSLKPEDTAVYYCARDWYYYPQYRQRYYYWGQGTQVTVSS | high polyreactivity
12 | QVQLIESGGGIVQAGGSLRLSSAASGIIFDWYTMGWYRQATGKERELVAAISWRGGRTYYADSVKGRFTISRDNAKNTVYLQMNSLKAVDTGVYYCAAEAPVQPFYVFNSGIYDLDYWGQGTHVTVSS | low polyreactivity
13 | QVQLVESGGGLVQAGGSLRLSCAASGLTFWKYTMGWYRQAPGKERELVAAISISGTNTYYADSVKGRFTISRDNAKNTVYLQMNSLKPEDTAVYYCAAVRGYPPTNYYYWGQGTQVSVSS | high polyreactivity
14 | QVQLVESGGGLVQAGGSLRLSCAASGRTFPVYAMGWYRQAPGQERELVAAINTSGTSTYYADSVKGRFTISRDNAKNTVYLQMNSLKPEDTAVYYCATRYRYTYYWGQGTQVTVSS | high polyreactivity
15 | QVQLVDSGGGLVQAGGSLRLSCAASGITFRRYAMGWYRQAPGKERELVASITRNGGITYYADSVKGRFTISRDNAKNTVYLQMNSLKPEDTAVYYCNAVFYYPYPADRRDYWGQGTQVTVSS | high polyreactivity
16 | QLQLVESGPGLVQAGGSLRLSCAPSGSTFNRNAMGCYSQAPGKERELVAVISSGGSTYYADSVKGRFTISRDIAKNTVYLQMNSLKPEDTAVYYCAAGDPQKEDYWGQGTQVTVSS | low polyreactivity
17 | QVQLVESGGGVVQAGGSLRLSCAASVRTFPGYAMGWYRQAPGKERELVAAISWSGTSTYYADSVKGRFTISRDYAKNTVYLQMNSLKPEYTAVYDCNKVYTYSAPYYYWGQGTQVTVSS | high polyreactivity
18 | QVQLVESGGVLVQAGGSLRLSCAPSGYIYSKYAMGWYRQAPGKERELVASITGRGSRTYYADSVKGRFTISRDNAKNTVYLQMNSLKPEDIAVYFCAADWYGQKTSNRWYFRPGYDYWGQGTQVTVSS | high polyreactivity
19 | QVHLVESGGGLVQAGGSLRLSCAASGLTFHRYAMGWYRQAPGKERELVAAINYSGGRTYYADSVKGRFTISRDNAKNSVYLQMNCLKPEDTEVYYCAAPRASGYYWGQGTQGTVSS | high polyreactivity
20 | QVQLVESGGGLVQAGGSLLLSCAASGFIFGPYALGWYRQAPGKERELVAAITWRGGRTYYADSVKGRFTISRDNAKNTVYLQMNSLKPEDTAVYYCAADYPYAMDYWGQGTQVTVSS | high polyreactivity
21 | QVQLVESGGGLVQAGGSLRLICAASGRIFLRNDMGWYRQAPGKERELVAGISSDGSTYYADSVNGRFTISRDNAKNTVYLQMNSLKPEDTAVYYCAAERWGNPTDYQFWRPYDYWGQGTQVTVSS | low polyreactivity
22 | QVQLVESGGGLVQAGGSLRLSCAASGRTFRYYSMGWYRQAPGKERELVATITGSGGSTYYADSVKGRFTISRDNAKNTVYLQMNSLKPEDTAVYYCNARKVRYPYRWYDYWGQGTQVTVSS | high polyreactivity

Row | Sequence | polyreactivity (PSR sort gate)
23 | QVQHVESGGGLVQAGGSLRLSCAASGRTFKYYAMGWDRQAPGKERELVAAITRRGTSTYYADSVKGRFTISRDNAKNTVYLQMNSLKPEDTAVYYCNKDSPVTYSSRYGYWGQGTQVTVSS | high polyreactivity
24 | QVQLVESGGGLVQAGVSLRLICDAYGRIFIVNAMGWYRQAPGKERELVAAISRGGSKNYADSVKGRFTISRDNAKNTVYLQMNSLKPEDTAVYYWNGDGSSYWYPVTQHGGDYCGQGTQVTVSS | low polyreactivity
25 | QVQLVESGGGLVQAGGSLRLSCAASGRIFWGNAMGWYRQAPGKERELVAAITRSGGSTYYADSVKGRFTISRDNAKNTVYLQMNSLKPEDTAVYYCAARRNYINFRYTLDYYYWGQGTQVTVSS | high polyreactivity
26 | QVQLVEKGGCLVQAGGSLSLSCAAYGRTFILNSMGCYRQAPWKEMELVAAISWSGGSTYYADSVKGRFTISRDNAKNTVYLQMNSLKPEDTAVYYCAAETYAYLFHTYDYWGQGTQVTVSS | low polyreactivity
27 | QVQLVESGGGLVQAGGSLRLSCAASGSIFALYTMGWYRQAPWKERELVAGIRTGRSTNYADSVKGRFTISRDNAKNTVYLQMNSLKPEDTAVYYDYWGQGTQVTVSS | low polyreactivity
28 | QVQLVESGGGLVQAGGSLRLSCAASGITIFRYALGWSRQAPGKERELVAAISSSGGSTYYADSVKGRFTISRDNAKNTVYLQMNSLKPEDTAVYYCAAAHGYRYYWGQGTQVTVSS | high polyreactivity
29 | QVQLVESGGGLVQAGGSLRLSCAASGSTIRYYVKGWYRQAPGKERELVAAISYNGGSTYYADSVKGRFTISRDTAKNTVYLHMNSVTPEDTAVYYCAADAPYRSSGKDYWGQGTQVTVSS | high polyreactivity
30 | QVQLVESGGGLVQAGGRLRLSSAASGFTLVLNAMGWYIPAPGKERELVAAIRRSAGSTYYADSVKGRFTISRDNAKNTVYLQMNRLKPEDTAVYYCAAGFLWAKYAYGHWGQATQVTVSS | low polyreactivity
31 | QVQLVESGGGLVQAGGSLRLSCSASGSTFKYNAKGWYIQETGKEWELVAYITRGGHTNYAVSVKGRFTISRDNAKNTVYLQMNRLKPEDTAVYYCAAVRPSVGFRGAWYPQYDYWGQGTQVTVSS | low polyreactivity
32 | QVQLVESGGGLVQAGGRLRLSCAASGSIFRRYAMGWYRQEPGKERELVAVITTDGSTYYADSVKGRFTISRDNAKNTVYLQMNSLKPEDTAVYYCAAEVYVIGDSGYDYWGQGTQVTVSS | low polyreactivity
33 | QVQLVESGGGLVQAGGSLRLSCAASGFIFGNYAMGWYRPAPGKERELVATITRRGGRTYYADSVKGRFTISRDNAKNTVYLQMNSLKPEDTAVYYCNAGAYYLLSGQDDMDYWGQGTQVTVSS | high polyreactivity
34 | QVQLVESGGGLVQAGGSLRLSCAASGRTFAPYVMGWYRQAPGKERELVAAITWSGGSTYYADSVKGRFTISRDNAKKTVYLQMNSLKPEDTAVYYCAVKGAGGPKYDYWGQGTQVTVSS | high polyreactivity
35 | QVHLVESGGGLVQAGGSLRLSCAASGRIFGFYAMALYRQSPGKEREFVASISVRGASTYADSVKGRFTISRDNAKNTVYLQMNSLKPEDTAVYYCNAYGRVSKRYGYWGQGTQVTVSS | high polyreactivity
36 | QVQLVESGGGLVQAGGSLRLSCAASGSTFSVYAMGWYRQAPGKERELVAAISSSGANTYYADSVKGRFTISRDNAKNTVYLQMNSLKPEDTAVYYCAAYVSGGYEYDYWGQGTQVTVSS | low polyreactivity
37 | QVQLVESGGGLVQAGGSLRLSCAASGSTFGQYAMGWYRQAPGKELELVAAISSGGRTNYADSVKGRFTISRDNAKNPVYLQMNSLKPEDTAVYYCAARYYFPFRRFRRMDYWGQGTQVTVSS | high polyreactivity
38 | QVQLVESGGGLVQAGGSLRLSCAASGSIFTYYVRGWYRQAPVKERELVAGISRRGSTYYADSVKGRFTISRDNAKNTVYLQMNSLKQEDTAVYYCAAEPWVGTLYPRVGYWGQGTQVTVSS | low polyreactivity
39 | QVQLVESGGRLVQAGGSLRLSCAASGITFDLYDMGWYRQAPGKVRELVAAITDADSTYYADSVKGRFTMSRDNEKNTVKLQMTSLIPEDTAVYYCAADFFYSVYSGHYDYWGQGTQVTVSS | low polyreactivity
40 | QVQLVESGGGLVQAGGSLRLSCAASGIIFNSYAMGWYRQAPGKERELVAAITRAGRTYYADSVKGRFPISRDNAKNTVDLQMNSLKPEDTAVYYCAAAFLSRVQGYDSWGQGTQVTVSS | high polyreactivity
41 | QVQLVESGGGLVQAGGSLRLSCAASGSNFTAYAMGWYRQAPGKERELVAAIDDSGDSTYYADSVKGRFTISRDNSKNTVYLQMNSLKPEDTAVYYCKAEYRVNKEYDYWGQGTQVTVSS | low polyreactivity
42 | QVQLVESGGGLVQAGGSLRLSCAASGFIFAWYAMGWYRQAPGKERELVAAIDYSDGTTYYADSVKGRFTISRDNAKNTVYLQMNSLKPEDTAVYYCAAYNEFVYEDDYWGQGTQVTVSA | low polyreactivity
43 | QVQLVESGGGLVQAGGSLRLSCAASGRIFYDNVMGWYRQAPGKERDLVAAISRSGGDTYYADSVKVRFTISRDNAKNTVYLQMNSLKPEDTAVYYCAADIYAFSGLYYYWGQGTQVTVSS | high polyreactivity
